Experimental data from patent US20190367618A1 (SHANGHAI JUNSHI BIOSCIENCES, published 2019).
Where a chain is given by its changes, count along the chain named. Values belong to the molecule of their own block, whether it stands above or below them.

Tests used:
hPD-L1-his = molecular target: T1, hPD-L1-his (human, UniProt Q9NZQ7 19-238, limits assumed); experiment: ELISA, hPD-L1-his coated, anti-human IgG (Fc-specific)-peroxidase detection
T1 construct: also called human PD-L1; not shown: his tag

[1] = molecular target: T2, human PD-L1 extracellular domain protein (human, UniProt Q9NZQ7 19-238, biotin (biotin-NHS, molar ratio 1:10) where used as biotin-labeled human PD-L1 (Examples 2, 3, 5, 12, 17)); experiment: ForteBio (BLI)
T2 construct: extracellular domain; About 75 kDa on SDS-PAGE; also called human PD-L1 recombinant protein; biotin-labeled human PD-L1

[2] = molecular target: T3, human PD-L1 (ELISA coat, construct not stated) (human, UniProt Q9NZQ7 19-238, limits assumed); experiment: ELISA, PD-L1 coated
T3 construct: also called human PD-L1 protein
Protocol: A 96-well microtiter plate was plated, coated with PD-L1, and incubated at 37° C. for 60 minutes. The solution in the wells was then discarded, and the wells were washed 3 times with washing buffer, and blocked with PBS containing 2% BSA for 60 minutes. After washed 3 times with washing buffer, each well was added with 100 μl of biotin-labeled IgG4 antibody, incubated at 37° C. for 30 minutes, washed 3 times with washing buffer, then added with humanized antibodies of different dilutions, and incubated at 37° C. for 1 hour. After washed 3 times with washing buffer, the cells were incubated with HPR-labeled mouse anti-human IgG (H+L) (diluted 1:10000 with washing buffer) at room temperature for 1 hour, washed 3 times with washing buffer, and then added with 100 μl of TMB substrate for development. After reacting for 30 minutes at room temperature, the reaction was terminated with 100 μl of 2 M hydrochloric acid solution and the absorbance was read at 450 nm.

PD-L1 on CHO cells = PD-L1 on CHO cells (human, UniProt Q9NZQ7 19-290); experiment: cell-based or functional assay
PD-L1 on 293F cells = molecular target: T4, PD-L1 on 293F cells (UniProt Q9NZQ7 19-290, limits assumed); experiment: flow cytometry on 293F cells expressing PD-L1
T4 construct: whole, on cells
Protocol: Antibody (humanized antibodies 30, 38) dilutions at different concentrations was added in a volume of 50 μl, mixed and incubated at room temperature for 30 min. The cells were washed twice with FACS buffer, contacted with 100 μl of goat anti-human IgG-PE antibody, and incubated for 30 min in the dark. FACS was performed after washing twice with FACS buffer.

[3] = molecular target: T2, human PD-L1 extracellular domain protein; experiment: flow cytometry, inhibition of biotin-PD-L1 (1 µg/ml) binding to PD-1 on 293F cells

T2 sequence (Q9NZQ7 19-238): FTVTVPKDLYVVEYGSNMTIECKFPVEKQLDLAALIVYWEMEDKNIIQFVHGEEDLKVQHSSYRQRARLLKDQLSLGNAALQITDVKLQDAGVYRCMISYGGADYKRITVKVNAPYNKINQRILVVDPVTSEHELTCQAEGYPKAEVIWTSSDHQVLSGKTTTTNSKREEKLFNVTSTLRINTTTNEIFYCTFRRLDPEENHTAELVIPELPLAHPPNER
T1 sequence (Q9NZQ7 19-238 limits assumed): as the sequence (Q9NZQ7 19-238) above
T3 sequence (Q9NZQ7 19-238 limits assumed): as the sequence (Q9NZQ7 19-238) above
T4 sequence (Q9NZQ7 19-290 limits assumed): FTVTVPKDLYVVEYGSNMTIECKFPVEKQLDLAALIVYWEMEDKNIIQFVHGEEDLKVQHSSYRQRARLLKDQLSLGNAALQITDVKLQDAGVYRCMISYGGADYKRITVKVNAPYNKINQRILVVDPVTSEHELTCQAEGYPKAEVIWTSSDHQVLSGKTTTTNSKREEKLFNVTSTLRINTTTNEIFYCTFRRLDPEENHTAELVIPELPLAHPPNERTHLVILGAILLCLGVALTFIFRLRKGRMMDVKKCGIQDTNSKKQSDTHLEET
PD-L1 on CHO cells, sequence (Q9NZQ7 19-290): as the sequence (Q9NZQ7 19-290 limits assumed) above

B1: clone 16 (murine antibody 16) (antibody, V domains shown)
VH: EVQLQQSGPELVKPGASVKMSCKASGYTFTNYVIHWVKQTPGQGLEWIGYINPNIDGGSYNEKFNGKAKMTSDKSSSTVHMELRSLTYEDFAVYYCAKPRGSWGQGTLVTVSA
VL: DIVLTQSPASLAVSLGQRATISCRASESVEFYGTSLMQWYQQKPGQPPKLLIYAASNVDSGVPARFSGSGSGTDFSLNIHPVEEDDIAMYFCQQGRHVPYTFGGGTKLEIK
notes: Murine hybridoma antibody
Kd [1]: 0.5 nM

B3: humanized antibody 30 (antibody, V domains shown)
VH: QGQLQESGPSLVKPSQTLSLTCTVSGDSITRGYWNWIRKHPGKGLEYIGYISYTGSTYSNLSLKSRVTISRDTSKNQYYLKLSSVTAADTAVYYCATSTGWLDPVDYWGQGTLVTVSS
VL: DIVMTQSPDSLAVSLGERATINCKASQNVDTSVAWFQQKPGQPPKALIYSASFRYSGVPDRFSGSGSGTDFTLTISSLQAEDVAVYFCQQYYGYPFTFGQGTKLEIK
EC50 [2]: 0.000558 µg/mL
EC50, Jurkat fluorescein (PD-1/NFAT-luciferase reporter) analysis (PD-L1 on CHO cells): 0.0782 µg/mL
EC50 (PD-L1 on 293F cells): 0.287 µg/mL
EC50 (hPD-L1-his): 0.0111 µg/mL
IC50 [3]: 0.647 µg/mL

The next lines start with the values.

EC50 (hPD-L1-his): 0.0216 µg/mL
Molecule: durvaluma (antibody)

EC50 [2]: 0.000837 µg/mL
EC50, Jurkat fluorescein (PD-1/NFAT-luciferase reporter) analysis (PD-L1 on CHO cells): 0.082 µg/mL
EC50 (PD-L1 on 293F cells): 0.348 µg/mL
IC50 [3]: 0.889 µg/mL
B2: humanized antibody 38 (antibody, V domains shown)
VH: B3 VH with H40P
VL: DIQMTQSPSSLSASVGDRVTITCRASQNVDTSVAWFQQKPGKAPKALIYSASFRYSGVPSRFSGSGSGTDFTLTISSLQPEDFATYFCQQYYGYPFTFGQGTKLEIK

Kd [1]: 0.9 nM
B4: clone 21 (murine antibody 21) (antibody, V domains shown)
VH: EGQLQESGPSLVKPSQTLSLTCSVTGDSITRGYWNWIRKFPGNKFEYMGYISYTGSTYSNLSLKSRISITRDTSKNHYYLRLNSVTTEDTATYYCATSTGWLDPVDYWGQGTLVTVSA
VL: DIVMTQSRKFMSTSVGDRASVTCKASQNVDTSVAWFQQKPGQSPKALIYSASFRYSGVPDRFTGSGSGTDFTLTISNVQSEDLAEYFCQQYYGYPFTFGSGTKLEIK
notes: Murine hybridoma antibody
